Here are results for 72 sequences from the supplement of paper PMC10567573.

± gives the standard deviation.

A short description of the data set: protein stability index of a GFP-peptide fusion (GPS, HEK-293T) (PSI 1-6); higher = more stable.
The mark [1] stands for this setting: treatment: DMSO, c terminus: a fixed tail appended.
The mark [2] stands for this setting: treatment: MLN4924 1 uM, 8 h, c terminus: a fixed tail appended.
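Note: 24-mer peptide tiles fused after GFP, lentivirally expressed, FACS-sorted into six equal bins by GFP/DsRed ratio, decoded by Illumina sequencing, PSI is the read-weighted mean bin number.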

As to EEEEERWEWSPAGLQSYQQALLRI [SERTAD3], the protein stability index under setting [1] worked out at 3.46 ± 0.29 and the protein stability index under setting [2] stood at 3.43 ± 0.17.
For EEIVFNLTNNVDLDNTKKKMEIYQ [MNAT1] the same measures were 4.05 ± 0.39 and 4.02 ± 0.35.
For the sequence EEPELVFTLGDCDVIQALDLSVPL [FKBP8], the protein stability index came out at 3.66 ± 0.28 under setting [1] and 3.48 ± 0.41 under setting [2].
EETIASLQMEVCRLKKEEEDRIVT [CEP70] returned a protein stability index under setting [1] of 4.65 ± 0.072 and a protein stability index under setting [2] of 4.8 ± 0.32.
Take EEVDTGAVNLIESGACGAFVHGLE [INTS4]: the protein stability index worked out at 4.34 ± 0.39 under setting [1] and 4.85 ± 0.46 under setting [2].
For EFIMPDSAVVGDVLVLTKPLGTQV [SEPHS2] the same measures were 2.3 ± 0.31 and 2.54 ± 0.32.
The corresponding values for EFLRVQEERILHQQVKCIITEEKV [VPS39] are 3.08 ± 0.26 and 2.92 ± 0.3.
For EGCELPDLPSSLLLPEDMALRNLP [SMG5] the same measures were 4.4 ± 0.1 and 4.49 ± 0.15.
As for EGSADTEDRKLPAPGADVKVHRAR [EHMT1], the protein stability index is, setting by setting: under setting [1], 5.27 ± 0.44; under setting [2], 5.41 ± 0.17.
With EGTLGYAIGGTYLGPAFRGLKGRT [SPSB2], the protein stability index runs as follows: under setting [1], 3.14 ± 0.1; under setting [2], 3.06 ± 0.32.
For EIIKVTEQLIEAINNGDFEAYTKI [CAMK2D] the same measures were 2.47 ± 0.12 and 2.63 ± 0.29.
Regarding EKAVANFDRTEWVQIRRLEAAGES [ZC2HC1C], the protein stability index stood at 4.49 ± 0.12 under setting [1] and 4.48 ± 0.26 under setting [2].
As for EKDNSRRMLTDKEREMAEIRDQMQ [LMNB1], the protein stability index amounted to 5.3 ± 0.12 under setting [1] and 5.32 ± 0.13 under setting [2].
On to EKGRALQIRDWRGGRLENQKPRGL [ZSWIM9], for which the protein stability index is, setting by setting: under setting [1], 4 ± 0.34; under setting [2], 4.2 ± 0.35.
The corresponding values for EKSHQVLAQLLDTLLAIGTKLPEN [INTS4] are 3.14 ± 0.82 and 3.2 ± 0.86.
The corresponding values for EKYKTQIDHYVGIARDQTKSIVEK [RTN3] are 4.07 ± 0.2 and 4.15 ± 0.31.
For the sequence ELAFAEDLVLDEEGARAAGLGELG [ESRRA], the protein stability index worked out at 5.24 ± 0.2 under setting [1] and 5.19 ± 0.27 under setting [2].
The corresponding values for ELALFQMSVLWLEHDRETRMQYAP [KLHL14] are 2.44 ± 0.58 and 2.46 ± 0.34.
The corresponding values for ELEMIGFIENNVSKLSLLLNDISR [TRIP13] are 2.2 ± 0.31 and 2.63 ± 0.41.
For ELLSAPPPDLGAQRRHGWNPKDCS [SPSB2] the same measures were 3.72 ± 0.14 and 3.48 ± 0.25.
As to ELPLLTPCSKAVMSQALKATFSGF [ETS2], the protein stability index was 2.62 ± 0.28 under setting [1] and 2.06 ± 0.65 under setting [2].
For ENEEMEQPMQNGEEDRPLGGGEGH [BEX3] the same measures were 5.42 ± 0.15 and 5.41 ± 0.2.
For ENILSFMSYDEISQLRLVCKRMDL [FBXO28] the same measures were 2.32 ± 0.21 and 2.35 ± 0.28.
Consider ENNMLQPETHIFTAPEEVPKVSDQ [DMRTC1], for which the protein stability index runs as follows: under setting [1], 5.57 ± 0.18; under setting [2], 5.56 ± 0.21.
ENWVCLSCYQVYCGRYINGHMLQH [HDAC6]: the protein stability index turned out to be 2.33 ± 0.76 under setting [1] and 2.54 ± 0.46 under setting [2].
Regarding EPDALDDSLTSLQWLQEFSILNAK [FOXJ1], the protein stability index under setting [1] was found to be 3.75 ± 0.21 and the protein stability index under setting [2] worked out at 3.65 ± 0.11.
On to EPGYIDSEIGTSDQIVPEYQEDSD [TRIB1], for which the protein stability index under setting [1] amounted to 5.69 ± 0.29 and the protein stability index under setting [2] was 5.62 ± 0.19.
For EPMRDQVARTHLTEDTPKVNADIE [NSDHL], the protein stability index under setting [1] stood at 5.32 ± 0.34 and the protein stability index under setting [2] amounted to 5.56 ± 0.075.
For EQASAFQEQEIDGKSLLLMTRNDV [SAMD13] the same measures were 4.74 ± 0.12 and 4.78 ± 0.14.
For EQIRFVMKAHSFVRENVPRVLNSA [SOAT1] the same measures were 2.58 ± 0.46 and 2.48 ± 0.41.
As to EQLERIERKNAEMYKLSSEQFHEA [CHCHD6], the protein stability index runs as follows: under setting [1], 4.52 ± 0.46; under setting [2], 4.78 ± 0.12.
For EQVAQLKQKVMTHVSNGCQLLLGV [JUNB] the same measures were 2.33 ± 0.27 and 2.12 ± 0.13.
The corresponding values for ERALDATEVPFSITTDNLQCRERR [TEKT4] are 4.88 ± 0.069 and 5.06 ± 0.11.
As to ERAVKRMRHLSTGTMTGLAIQYAL [MATN2], the protein stability index reads like this: under setting [1], 2.39 ± 0.44; under setting [2], 2.22 ± 0.32.
The corresponding values for ERLKVMCEEALCSNLSVENVADTL [SPOPL] are 3.84 ± 0.36 and 4.09 ± 0.39.
The corresponding values for ERYQKIGDTKRATPIEVLCENFPE [CSNK1G3] are 4.59 ± 0.11 and 4.44 ± 0.28.
Turning to ESFTMDDMSWTCGNQDYKYRVSDV [VDR], the protein stability index reads like this: under setting [1], 3.08 ± 0.27; under setting [2], 2.94 ± 0.13.
As for EVKPVLEVLVGKTIEQSLLEVMEE [RSPH3], the protein stability index is, setting by setting: under setting [1], 2.48 ± 0.39; under setting [2], 2.64 ± 0.48.
For EVPDSYTGPRLSFPLLPDHATALV [PPEF2] the same measures were 3.23 ± 0.27 and 3.42 ± 0.28.
EVRAKFKFSLLNAKREETKAMESQ [SPOPL]: the protein stability index is 4.06 ± 0.29 under setting [1] and 3.97 ± 0.33 under setting [2].
Consider EVREARDHKEPKEEINKNISDFGR [EHMT1], for which the protein stability index came to 5.18 ± 0.26 under setting [1] and 5.28 ± 0.17 under setting [2].
Regarding EVVTPDNMCMGRTSRGKLGGQDSF [ETS1], the protein stability index under setting [1] was found to be 3.71 ± 0.16 and the protein stability index under setting [2] turned out to be 3.87 ± 0.2.
The corresponding values for EYDDDDSAASTSFQPQPVQPQQGY [ZNF207] are 5.32 ± 0.21 and 5.37 ± 0.26.
With FAVGYIKISWSTWGEMTLSLFSLL [SLC19A2], the protein stability index reads like this: under setting [1], 3.18 ± 0.6; under setting [2], 3.15 ± 0.34.
Regarding FERIMKYERLARILLQEIPIRSIS [FBXO39], the protein stability index under setting [1] came out at 2.73 ± 0.39 and the protein stability index under setting [2] turned out to be 2.35 ± 0.4.
The corresponding values for FFHLSALKGYLYAVGGRNAAGELP [KLHL13] are 2.56 ± 0.62 and 2.27 ± 0.26.
The corresponding values for FFIQTVRPKDTVMCYRVRWEEAAP [MYORG] are 2.62 ± 0.73 and 2.56 ± 0.92.
Take FFPQHPNFCEPQDYRPMNHEAFKD [CDC25B]: the protein stability index runs as follows: under setting [1], 3.81 ± 0.33; under setting [2], 4.09 ± 0.21.
The corresponding values for FGDVSERLALRQRLKCRSFKWYLE [GALNT9] are 2.29 ± 0.59 and 2.54 ± 0.37.
The corresponding values for FGNRIKRVKLISNKGTETDNDPSC [PHTF1] are 4.06 ± 0.29 and 4.05 ± 0.42.
For FGRGSRTVDLELELQIELLRETKR [ARFIP2] the same measures were 2.26 ± 0.15 and 2.32 ± 0.26.
For the sequence FHGKYSTINPLWHIRHLGWNPDAR [GLT8D2], the protein stability index worked out at 2.57 ± 0.39 under setting [1] and 2.31 ± 0.21 under setting [2].
In turn, FHPIKETVVEEPVDITPYLDQLDE [INTS3] registered a protein stability index under setting [1] of 3.98 ± 0.67 and a protein stability index under setting [2] of 4.5 ± 0.44.
Turning to FIIHGFIDKGDESWVTDMCKVGAS [PNLIPRP1], the protein stability index reads like this: under setting [1], 1.98 ± 0.25; under setting [2], 2.65 ± 0.48.
FIVIDAMLERIKHEKTVDIYGHVT [PTPRD]: the protein stability index came out at 3.04 ± 1.2 under setting [1] and 2.5 ± 1.1 under setting [2].
FIYDMCGSNYANFELDLGKKVLNL [PTPN9] had a protein stability index under setting [1] of 3.01 ± 1.1 and a protein stability index under setting [2] of 2.22 ± 1.5.
For FKKFIRRDFLLDEANGLLPDDKLT [SPOPL] the same measures were 2.27 ± 0.097 and 2.41 ± 0.24.
FKNSLLQKELKKAQMAKAAAEERA [WEE1] came in with a protein stability index under setting [1] of 4.37 ± 0.15 and a protein stability index under setting [2] of 4.34 ± 0.087.
For FLANLHITALLNVSRRTSEACMTH [DUSP5] the same measures were 3.13 ± 0.42 and 3.48 ± 0.7.
For FLDLFRYRVLLGHTLILMFIWFVC [SLC22A15] the same measures were 2.73 ± 0.42 and 2.85 ± 0.71.
The corresponding values for FLGISIVGQSNERGDGGIYIGSIM [DVL3] are 2.87 ± 0.99 and 2.61 ± 0.68.
In turn, FLNDRLANYLEKVRQLERENAELE [KRT36] yielded a protein stability index under setting [1] of 3.21 ± 0.25 and a protein stability index under setting [2] of 3.54 ± 0.49.
As for FLQALSLAVDKQFEERKKLAAYI [TRIP13], the protein stability index is, setting by setting: (treatment: DMSO, c terminus: native) 3.18 ± 0.71; (treatment: MLN4924 1 uM, 8 h, c terminus: native) 2.54 ± 0.51.
As for FLRCVTAALIYFAISITAIAKYSD [CMTM3], the protein stability index under setting [1] stood at 3.41 ± 0.29 and the protein stability index under setting [2] is 3.43 ± 0.32.
For FLVGLLFVQRSGNYFVTMFDDYSA [SLC6A17] the same measures were 3.05 ± 0.76 and 3.27 ± 0.38.
The corresponding values for FPWIDAIMTQLRQEGWIHHLARHA [CRY1] are 2.5 ± 0.46 and 2.96 ± 0.8.
For FQEPDSPLPPARSPTEPGPERRRS [WEE1] the same measures were 5.32 ± 0.35 and 5.31 ± 0.06.
In the case of FQLNQDKMNFSTLRNIQGLFAPLK [POMP], the protein stability index by setting is: under setting [1], 2.54 ± 0.61; under setting [2], 2.3 ± 0.4.
With FQSRLPYQYLHYALFKANRLEKAV [P3H4], the protein stability index amounted to 2.37 ± 0.53 under setting [1] and 2.31 ± 0.56 under setting [2].
For FQVVKDAVLDCLLDFLPKDVKKEK [TENT5D] the same measures were 5.16 ± 0.18 and 4.95 ± 0.23.
The corresponding values for FRALAPMYYRGSAAAIIVYDITKE [RAB22A] are 2.27 ± 0.36 and 2.16 ± 0.54.
The corresponding values for FRDEKDYPASTSQDSFEAAGNSTS [KCNA3] are 5.55 ± 0.25 and 5.47 ± 0.077.
